Reference: article PMC8136665
Values joined by “and” are separate entries in the source; they are usually repeats but may differ in a detail not shown here. Equal entries are not always repeated.

Key:
[1] = molecular target: SARS-CoV-2 spike (S) glycoprotein ectodomain, prefusion-stabilised trimer (SARS-CoV-2) (UniProt P0DTC2); assay: SPR
[2] = molecular target: SARS-CoV-2 spike (S) glycoprotein ectodomain, prefusion-stabilised trimer (SARS-CoV-2) (UniProt P0DTC2); assay: negative-stain electron microscopy

## DC-SIGN extracellular domain (Dendritic Cell-Specific Intercellular adhesion molecule-3-Grabbing Non-integrin) (from UniProt Q9NNX6 66-404) (domain or fragment)
[1]
  Kd: 11.9 µM and 4.33 µM
[2]
  stoichiometry N: 1 and > 2

## L-SIGN extracellular domain (liver/lymph node-specific intracellular adhesion molecules-3 grabbing non-integrin) (from UniProt Q9H2X3 78-399) (domain or fragment)
[1]
  Kd: 1.8 µM and 1.66 µM

## MGL (Macrophage galactose lectin) extracellular domain (domain or fragment)
[1]
  Kd: 7 µM
